Experimental findings from article PMC6468249 are described below.

Read-outs that look alike come from different tables or passages of the source.

For series [1], the target named is T1, mtSSB (Homo sapiens, UniProt Q04837 15-148).
T1 sequence: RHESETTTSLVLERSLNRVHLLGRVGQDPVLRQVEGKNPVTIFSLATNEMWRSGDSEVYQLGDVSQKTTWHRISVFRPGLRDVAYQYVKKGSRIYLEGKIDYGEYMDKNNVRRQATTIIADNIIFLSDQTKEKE
As to the kind of experiment: EMSA.

In series [2] the target is T1, mtSSB. As to the kind of experiment: EMSA. This is another data set of the same source.

In the case of AGAACCUGUUGAACAAAAGC (ssRNA) [20 nt RNA probe], in the series with mtSSB [1], the binding result was “binds”.

For AGAACCTGTTGAACAAAAGC (ssDNA) [20 nt ssDNA probe], the binding result with mtSSB [2] is recorded as “binds”.
